In patent US20250382602:
Substitutions are numbered along the chain they refer to.

How the values were obtained:
[1] = molecular target: T1, Dda 1993 K177W K177W (Enterobacteria phage T4) (UniProt P32270); conditions: nanopore translocation; background mutations not given
T1 sequence: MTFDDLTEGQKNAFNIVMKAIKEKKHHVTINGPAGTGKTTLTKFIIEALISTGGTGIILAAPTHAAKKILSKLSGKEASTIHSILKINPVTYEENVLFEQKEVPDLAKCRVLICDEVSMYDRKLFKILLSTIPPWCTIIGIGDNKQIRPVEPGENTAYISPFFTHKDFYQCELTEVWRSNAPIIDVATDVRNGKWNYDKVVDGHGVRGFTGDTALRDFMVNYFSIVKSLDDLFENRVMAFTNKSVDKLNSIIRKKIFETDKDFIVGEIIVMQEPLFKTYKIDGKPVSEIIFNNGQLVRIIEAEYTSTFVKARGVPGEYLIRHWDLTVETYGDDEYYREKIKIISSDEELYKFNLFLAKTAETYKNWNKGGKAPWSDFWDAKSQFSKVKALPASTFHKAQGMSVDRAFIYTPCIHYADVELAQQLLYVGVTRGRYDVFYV

[2] = molecular target: T2, Dda 1993 K177V K177V (Enterobacteria phage T4) (UniProt P32270); conditions: nanopore translocation; background mutations not given
T2 sequence: T1 sequence with W177V

[3] = molecular target: T3, Dda 1993 K177D K177D (Enterobacteria phage T4) (UniProt P32270); conditions: nanopore translocation; control is an unspecified Dda variant, background mutations not given
T3 sequence: T1 sequence with W177D

[4] = molecular target: T4, Dda 1993 K177M K177M (Enterobacteria phage T4) (UniProt P32270); conditions: nanopore translocation; background mutations not given
T4 sequence: T1 sequence with W177M

[5] = molecular target: T5, Dda 1993 K177Q K177Q (Enterobacteria phage T4) (UniProt P32270); conditions: nanopore translocation; background mutations not given
T5 sequence: T1 sequence with W177Q

[6] = molecular target: T6, Dda 1993 K358E K358E (Enterobacteria phage T4) (UniProt P32270); conditions: nanopore translocation, FLO-MIN106; background mutations not given
T6 sequence: T1 sequence with W177K, K358E

Substance: barcoded 3.6 kb DNA analyte ligated to sequencing Y adaptor
- activity (bps speed delta vs control) [1]: -23.4
- activity (bps speed delta vs control) [2]: -16
- activity (bps speed delta vs control) [3]: 3.07
- activity (bps speed delta vs control) [4]: 48.3
- activity (bps speed delta vs control) [5]: 59.7
- activity (bps speed delta vs control) [6]: -53.9
